Results as given in US20230176070A1 (published 2023).
Substitutions are numbered along the chain they refer to.

B1: H1 (VHH)
VHH: QVQLVESGGGLVQPGGSLRLSCVASGIMFDIYTMRWYRQAPGKQRELVAAITGAGRANYNDDSVKGRFTISRDNAKNTVYLQMNRMKPEDTALYECNTEILGGGPNYWGRGTQVTVSE
B2: H15 (VHH)
VHH: QVQLVESGGGLVQAGDSLRLSCAASERTSNYAMGWFRQAPGKEREFVADINHTGGRRKYGDSVKGRFTISRDNAENMVYLQMNNLQVEDTAVYYCATGLRYDVSGYAPDYRYWGRGTQVTVSS
B3: H24 (VHH)
VHH: QVQLVESGGGLVQAGGSLRLSCVSSGRTYRWNAMGWFRQAPGKEREFVAAIDWDGRNTDYADSVKGRFTISRDNAKNTVYLQMNSLKVEDTAIYYCAAREWGSGGYSSIASYAYWGQGTQVTVSS
B4: G7 (VHH)
VHH: QVQLVESGGGLVQPGDSLRLSCAVSGQYVNMAAMGWFRQAPGKEREFVAGISWSDDTDIADSVKGRFTISRDHGKNTVDLQMNSLKPEDTGVYLCAGRFRRLAKDFGEYDYWGQGTQVTVSS
B5: G82 (VHH)
VHH: HVQLVESGGGLVQAGGSLRLSCAASGKIFSLSTMGWYRQAPGKQRELVAALTSGGSTNYADSVKGRFTISRDNAKYTTYLQMNSLKPEDTAVYYCNVRYYSGYDGYESNSWGQGTQVTVSS
B6: G83 (VHH)
VHH: QVQLVESGGGLVQAGGSLRLSCAASRRTFSIYNMGWFRQAPGKEREFVATITRYGDRTYTADSVKGRFTISSDQAKNTVYLQMNSLNPHDTAVYYCAADSAYSGPDFKHYDYWGQGTQVTVSS
B7: G95 (VHH)
VHH: HVQLVESGGGLVQAGGSLRLSCAASGRTFSSYAMAWFRQAVGKEREFVAAVSRSGTNLYYADSVKGRFTISRDTAKNTMYLQMNSLKPEDTALYYCAAGEALRWGIGQQPRSEFFDYWGQGTQVTVSS
notes: also called G95(C2)
B8: G9 (VHH)
VHH: DVQLVESGGGLVQPGGSLRLSCAASGLTLDNYDMAWFRQAPGKEREFVTAINYVGGRTYADSVRGRFTISRDDTKNTVYLQMNSLKPEDTAVYYCAAGLQYGITSLRTRNYNYWGQGTQVTVSS
B9: G2 (VHH)
VHH: EVQLVESGGDLVQAGGSLRLSCSASGNIFKINDMGWYRQAPGKQRELVARISSSGNTNYADSVKGRFTISRDNGKNTVYLQMNRVKPEDTAVYYCNADVQVSRNYEYEYWGQGTQVTVSS
B10: G13 (VHH)
VHH: DVQLVESGGGVVQAGGSLRLSCAASGRTFSDYAMGWFRQAPGKEREFVAGVSWSGVDTYYADSVKGRFTISRDNAKNTLYVQMNSLKPEDTAVYYCAAQRYYHGHAKNMRYDYWGQGTQVTVSS
notes: also called G13(C3)
B11: G17 (VHH)
VHH: EVQLVESGGGLVQAGGSLRLSCAASGVTISYWVMGWFRQAPGKEREFVARISWGGERTYYADSVKGRFAISRDNAKNTVYLQMNSLNAEDTAVYYCAADRTGWGHSNSRSEYDYWGQGTQVTVSS
B12: G22 (VHH)
VHH: QVQLVESGGGSVQAGGSLRLSCAASGRTFSSYSMAWFRQAPGKEREFVAVMNCRYGDTDYPDSVKGRFTMSRDNAKNTLYLQMNSLKPEDTAVYYCAAKLIAYCGSGYYYRRNDYGYWGQGTQVTVSS
B13: G34 (VHH)
VHH: QVQLVESGGGLVQAGDSLRLSCAASGRTFSRYAMAWFRQAPGKEREFVAGISWTGRFTYYADSVKGRFTISRDDAKNTVYLQMNNLKPEDTGLYFCKVGDPYGVGLREYEWWGPGTQVTVSS
B14: G47 (VHH)
VHH: QVQLVESGGGLVQAGGSLRLSCAASERIFSNYAMGWFRQAPGKEREFVASIRGSGSQTSYADSVKGRFTISRDGAKDTVDLQMNSLKPEDTAVYYCSAKKYCGSTYNRAEGYDYWGQGTQVTVSS
B15: G48 (VHH)
VHH: QVQLVESGGGLVQAGGSLRLSCAASGRTFSTLSMGWFRQAPGQGREFVGGINYDGSSVEYADSVKGRFTISRDNAKNMMYLQMNSLKPEDTAAYYCASSRGYNTGTNPLGYDVWGQGTQVTVSS
B16: G87 (VHH)
VHH: B12 VHH with Q1E, S11L, G16D, S33N, M34L, A35G, Q82E, S85N, L100V, I101L
B17: G5 (VHH)
VHH: EVQLVESGGGVVQPGGSLTLSCAASGFAFRNYAMSWVRQAPGKGPEWVSQINGRGGYTSYADSVKGRFTISRDNTKNTLYLQMNNLKPDDTAVYYCAKDPTQLRWIPVPNYILGSTKGQGTQVTVSS
B18: G76 (VHH)
VHH: QVQLVESGGGLVQPGGSLRLSCVVSGFPFSEYAMSWVRQTPEKGREWVSGIYTDGSETLYENSVKGRFTISRDNTKNTLYLQMNNLKPEDTARYYCKLGDPYGVGLRDYEYLGHGTQVTVSS
B19: G81 (VHH)
VHH: EVQLVESGGELVQAGGSLRLSCAASGRTDSVTRMAWFRQAPGKEREFVAAITWSSGYTYYPDSVKGRFTISRDNAKNTMYLQMNSLKAEDTAVYICAAAVGVISEYNSWGQGTQVTVSS
B20: G85 (VHH)
VHH: HVQLVESGGGLVQPGGSLRLSCAASGFTFSTYAMGWVRQAPGKGPEWVATIYSKGDTTHYANSAKGRFTISRDNARNTLYLQMNSLKPEDTAVYYCAKGISDSYLRVESNYRGQGTQVTVSS
B21: G6 (VHH)
VHH: QVQLVESGGGLVQAGGSLRLSCAASGRTISSYAMGWFRQAPGKERELVARITSSAGSTYYADSVKGRFTISRDNAKNTMYLQMNSLKPEDTAVYYCAVEIVRAQYDYWGQGTQVTVSS
B22: G29 (VHH)
VHH: QVQLVESGGGLVQAGDSLLLSCGTSGRTFSSNTMGWFRQAPGKGREFVATITASGRGTNYGDSVRGRFTISRDNDKNTVYLQMNNLKPDDTGVYTCAASDSPYGSRWIEAYGYWGQGTQVTVSS
B23: G32 (VHH)
VHH: QVQLVESGGGLVRAGDSLRLSCVVSGRPISSYAMAWFRQAPGKDREVVAGISANGDRTHYADSIKGRFTVSRDNAKNSMTLQMNKLKPEDTAVYYCAADSLTEGGYGLTGDFDYWGQGTQVTVSS
B24: G33 (VHH)
VHH: QMGRNSAEVQLVESGGSLRLSCSVSGGPFTSNGMGWYRQAPGKEREWVAAITNSGSANYADSVKGRFTVSMVNANNTMYLQMNNLKPDDTAVYYCNVAGWPHGYWGQGTQVTVSS
B25: G36 (VHH)
VHH: QMGRNSAQVQLVESGGSLRLSCAASGFALSNSYMKWVRQAPGKGPEWVSTIYADGSTYYTDSVKGRFITSRDNSKNTMYLQMSDLKPEDTAVYYCANPSAKGQGTQVTVSS
B26: G38 (VHH)
VHH: EVQLVESGGGLVQAGGSLRLSCVASGHTDCISGMGWYRQAPGKERELVAVLIGGGNTYYGDSVKGRFTISKDKAKNTLYLQMKTLKPEDMAVYYCTADDHGSECPNKEMSSTATYWGQGTQVTVSS
B27: G46 (VHH)
VHH: DVQLVESGGGLVQAGGSLRLSCAASGRTFSRYHMGWFRQAPGKERDVVAAISWSGDSTYYADSVKGRFTISKDNAKNTVYLQMDNLKPEDTAVYYCNVRGGVLRPYDYWGQGTQVTVSS
B28: G72 (VHH)
VHH: QVQLVESGGGLVQPGGSLRLSCATSGSTFSINGIGWYRQVPGIEREFVAGVSTDGKANYADSVAGRFTISINDGKNTAYLQMNSLKPEDTAVYYCNVDSTKGYYWGQGTQVTVSS

These binders were tested against T1, human serum albumin (human, UniProt P02768 25-609) (assay: indirect ELISA, HSA coated).
T1 construct: In the mutant screen wild type HSA came from medium of transfected HeLa cells; also called HSA; wild type HSA
T1 sequence (P02768 25-609 limits assumed): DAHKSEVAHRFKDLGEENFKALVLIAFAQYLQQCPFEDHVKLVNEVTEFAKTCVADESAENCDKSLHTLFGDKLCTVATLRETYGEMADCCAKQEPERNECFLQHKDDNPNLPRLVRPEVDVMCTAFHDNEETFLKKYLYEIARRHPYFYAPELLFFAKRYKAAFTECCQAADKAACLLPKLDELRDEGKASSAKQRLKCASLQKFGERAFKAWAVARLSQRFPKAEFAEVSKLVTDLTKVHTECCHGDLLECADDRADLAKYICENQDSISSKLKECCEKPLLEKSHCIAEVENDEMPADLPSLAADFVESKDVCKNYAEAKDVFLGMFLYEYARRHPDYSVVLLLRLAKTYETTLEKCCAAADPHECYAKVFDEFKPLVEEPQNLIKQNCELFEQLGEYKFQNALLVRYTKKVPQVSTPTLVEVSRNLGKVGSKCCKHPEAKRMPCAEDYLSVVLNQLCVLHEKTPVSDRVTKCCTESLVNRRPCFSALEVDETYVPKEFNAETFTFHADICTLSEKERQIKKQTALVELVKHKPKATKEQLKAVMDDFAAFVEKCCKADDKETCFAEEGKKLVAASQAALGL
Procedure: (§1) Indirect ELISA was carried out to evaluate the camelid immune response of an antigen and to quantify the relative affinities of antigen-specific Nbs. An antigen was coated onto a 96-well ELISA plate (R&D system) at an amount of approximately 1-10 ng per well in a coating buffer (15 mM sodium carbonate, 35 mM sodium bicarbonate, pH 9.6) overnight at 4° C. The well surface was then blocked with a blocking buffer (DPBS, 0.05% Tween 20, 5% milk) at room temperature for 2 hours. To test an immune response, the immunized serum was serially 5-fold diluted in the blocking buffer. The diluted sera were incubated with the antigen coated wells at room temperature for 2 hours. HRP-conjugated secondary antibodies against llama Fc (Bethyl) were diluted 1:10,000 in the blocking buffer and incubated with each well for 1 hour at room temperature. […] Nbs of both specific binders for test and scramble negative controls were serially 10-fold diluted from 10 μM to 1 μM in the blocking buffer. HRP-conjugated secondary antibodies against His-tag (Genscript) or T7-tag (Thermo) were diluted 1:5,000 or 1:10,000 in the blocking buffer and incubated for 1 hour at room temperature. Three washes with 1x PBST (DPBS, 0.05% Tween 20) were carried out to remove nonspecific absorbance between incubations. After the final wash, the samples were further incubated under dark with freshly prepared w3,3′,5,5′-Tetramethylbenzidine (TMB) substrate for 10 mins at room temperature to develop the signals. After the STOP solution (R&D system), the plates were read at multiple wavelengths (450 nm and 550 nm) on a plate reader (Multiskan GO, Thermo Fisher). A false positive Nb binder was defined if any of the following two criteria was met: i) the ELISA signal can only be detected at a concentration of 10 μM and was under detected at 1 μM concentration. ii) At 1 μM concentration, a pronounced signal decrease (by more than 10-fold) was detected compared to the signal at 10 μM, while there were no signals can be detected at lower concentrations. The raw data was processed by Prism 7 (GraphPad) to fit into a 4PL curve and to calculate logIC50.

Binder | ELISA affinity (LogIC50 (oD450nm)) | binding result
B1 | 4.92 | 
B2 |  | no binding (tested: Nb titrated from 10 µM)
B3 |  | no binding (tested: Nb titrated from 10 µM)

The binders below were run against T2, glutathione S-transferase (UniProt P08515 1-218 = GST) (assay: SPR, GST immobilised;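 note: nanobody analytes injected as dilution series over three orders of magnitude across antigen on a CM5 chip, kinetics fitted by 1:1 Langmuir model, optionally with mass transfer, duplicate runs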).
T2 construct: Expressed in E. coli, purified on GSH resin; also called GST
T2 sequence (P08515 whole entry): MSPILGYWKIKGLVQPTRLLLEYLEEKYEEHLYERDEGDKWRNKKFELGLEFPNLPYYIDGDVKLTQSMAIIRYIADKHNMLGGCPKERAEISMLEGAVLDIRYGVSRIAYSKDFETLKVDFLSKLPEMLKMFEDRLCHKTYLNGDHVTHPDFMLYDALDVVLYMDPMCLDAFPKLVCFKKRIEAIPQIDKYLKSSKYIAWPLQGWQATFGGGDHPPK
Procedure: Nb affinity measurement by SPR. Surface plasmon resonance (SPR, Biacore 3000 system, GE Healthcare) was used to measure Nb affinities. Antigen proteins immobilized on the activated CM5 sensor-chip by the following steps. Protein analytes were diluted to 10-30 μg/ml in 10 mM sodium acetate, pH 4.5, and were injected into the SPR system at 5 μl/min for 420 s. The surface of the sensor was then blocked by 1 M ethanolamine-HCl (pH 8.5). For each Nb analyte, a series of dilution (spanning three orders of magnitude) was injected in HBS-EP+ running buffer (GE-Healthcare) containing 2 mM DTT, at a flow rate of 20-30 μl/min for 120-180 s, followed by a dissociation time of 5-20 mins based on dissociation rate. Between each injection, the sensor chip surface was regenerated with the low pH buffer containing 10 mM glycine-HCl (pH 1.5-2.5), or high pH buffer of 20-40 mM NaOH (pH 12-13). The regeneration was performed with a flow rate of 40-50 μl/min for 30 s. The measurements were duplicated and only highly reproducible data was used for analysis. Binding sensorgrams for each Nb were processed and analyzed using BIAevaluation by fitting with 1:1 Langmuir model or 1:1 Langmuir model with mass transfer.

Binder | Kd [nM] | koff [s⁻¹] | kon [M⁻¹ s⁻¹]
B4 | 268 | 0.000809 | 3020
B5 | 0.504 | 0.000561 | 1.11e+06
B6 | 0.761 | 0.000751 | 987000
B7 | 77 | 0.00107 | 13900
B8 | 0.177 | 0.000353 | 2e+06
B9 | 2000 | 0.00204 | 
B10 | 0.36 | 0.00017 | 474000
B11 | 0.0217 | 2.92e-05 | 1.34e+06
B12 | 40.5 | 0.00125 | 30900
B13 | 17.6 | 0.000462 | 26300
B14 | 32.4 | 0.0127 | 391000
B15 | 126 | 0.000753 | 5930

These binders were tested against T2, glutathione S-transferase (assay: indirect ELISA, GST coated;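 note: nanobody dilution series starting at 10 µM binding plate-bound antigen, HRP anti-His or anti-T7 tag detection, TMB absorbance at 450 nm, logIC50 from four-parameter logistic fit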).
Procedure: as §1

Binder | ELISA affinity (LogIC50 (oD450nm)) | binding result
B4 | 1.89 | 
B5 | 7.22 | 
B6 | 8.72 | 
B7 | 3.76 | 
B8 | 8.05 | 
B9 | 2.67 | 
B10 | 6.74 | 
B11 | 9.81 | 
B12 | 2.07 | 
B16 |  | no binding (tested: Nb titrated from 10 µM)
B13 | 5.32 | 
B14 | 3.86 | 
B15 | 1.6 | 
B17 |  | no binding (tested: Nb titrated from 10 µM)
B18 |  | no binding (tested: Nb titrated from 10 µM)
B19 |  | no binding (tested: Nb titrated from 10 µM)
B20 |  | no binding (tested: Nb titrated from 10 µM)
B21 |  | no binding (tested: Nb titrated from 10 µM)
B22 |  | no binding (tested: Nb titrated from 10 µM)
B23 |  | no binding (tested: Nb titrated from 10 µM)
B24 |  | no binding (tested: Nb titrated from 10 µM)
B25 |  | no binding (tested: Nb titrated from 10 µM)
B26 |  | no binding (tested: Nb titrated from 10 µM)
B27 |  | no binding (tested: Nb titrated from 10 µM)
B28 |  | no binding (tested: Nb titrated from 10 µM)
